{"source": "the DeepSol protein solubility set", "data": [{"assay": "soluble on expression in E. coli; label from the status in PepcDB or PDB records", "values": [{"sequence": "MGSDKIHHHHHHMELVQFGCEDWLNVWEKSATIDIAQSTIDSLSLEEVLAFEEDNGEAFMSQMMKEKFSYGWIEGSPAFKSEVAKLYKRVPEDNILSTNGATGANFLTILGLIGQGDHVIAQYPSYQQLYDWPKTLGAQVDYWHIKEENNWLPQIEELRRLVKSNTKLICLNNAAQPTGAIMSPKFLSEVVEIARSVDAYILCDEVYLPLDEETPYSPIADLYEKGISTNSISKTYSVPGIRVGWVATQDRDLCNEFRKIRDYTLICTGVFDDAVAALVLKHKDKVLERARKIVKGNLSILKEWVENEPLVSMVYPNAVSVSFVKFEELDPTKTEDFAIQLLREKGVLIIPGNRFDLSGYARIGYCTDETTLRQGLKLLSEFLREYQV", "soluble on expression in E. coli": "not soluble"}, {"sequence": "MGSDKIHHHHHHMEMAIYCGKTYSWANELCSKPLKEVKVVDYNSVVDWVNSQKERAFLIFGTDVIPYSLYEYPKIPVNETPLFKFMERGGVVIWTGDVPFFYIEKDGIKKELFSKGNPFPFKPISVMGHKPLSEKSENSIVGEMLKYDPKDSWRPVEPHPLLIPISIVKSHPYTLYSTWIYKYGKGAFVRLYDSPYVNTQYILSLPERLSSLGIGIRISNFRRFRDFKMIFPEFKIGVILGKNNVGKTTILEAIAMLGKNEDKIRKFRGNISTEIAETELFVNYTYYKAEFSYSQVNRSADVNVLLIYSHDIDFVIDDKVLPYVKSSLRKVTELLNSFDPNIFYVYLSSGNELRVLFNDRTDVSINELGYGYKSLLNFILLYVIYQPRIILIDDLEGFALHPDLLKMFYDLLLKIDVDLILITTQSSDIYAYLAEKRSDKVRFILINDDKYEVLTSEEVLDRLYYEDLRYTALKIH", "soluble on expression in E. coli": "not soluble"}, {"sequence": "MGSDKIHHHHHHMEMNDTRRRLIELIAEHHASHPGKKLGIEELSRRAGISRQSFNRYYKDLTDYAAGRKLIGDLVDDTTNAQTKQLINQQQEVMRDLQEQVEHSEIENAKKLKKAMDSYVTSLMVNDLTAHAANSLRITLEKQTVHNLQLKQELTNMEVSLAKAQANAATLAISPTPREGKGEKVKLDVDLSKAVAAFSATKSEDDFEDKKEIALKSLVQSICKLALESKCSIVLFAERYVSRFSSFYDNFSCPDDGLHIIARLPVFYRSELRTFIDKLPPTQNISLYIPYLESASEKKAQRSFYFNSIPKCELDSADEADVIPMTLGLDRIIQFRVKQGD", "soluble on expression in E. coli": "not soluble"}, {"sequence": "MGSDKIHHHHHHMEQHQVWAYQTKTHSVTLNSVDIPALAADDILVQNQAIGINPVDWKFIKANPINWSNGHVPGVDGAGVIVKVGAKVDSKMLGRRVAYHTSLKRHGSFAEFTVLNTDRVMTLPDNLSFERAAALPCPLLTAWQAFEKIPLTKQREVLIVGFGAVNNLLTQMLNNAGYVVDLVSASLSQALAAKRGVRHLYREPSQVTQKYFAIFDAVNSQNAAALVPSLKANGHIICIQDRIPAPIDPAFTRTISYHEIALGALHDFGDRQDWQILMQQGEALLTLIAQGKMEIAAPDIFRFEQMIEALDHSEQTKLKTVLTLNE", "soluble on expression in E. coli": "not soluble"}, {"sequence": "MGSDKIHHHHHHMERHTVNEIEIFTIPFDKARTISCAFLIKKGSAHEPEELAGISHFIEHMAFRGTKSYDHFSLKYTVEVVGGTLNAFTDKLATAYYAKVPEFHFGKTLNVLKEITFYPIFSPEDTEIERKIILEEYKMSQDDPTSKLFDTLVETVWPGPYGRPIIGRKETIEKISSEDLREYHRKNYNLPDTKIILAGKVNDDYLSLLEKELSELERNKPGDPLPPPPSFEHTEPRYIVRNDLEQVHIAMARPICGRISEDIYPLYALNTALGSGMSSILFHEIREKEGFVYDVFSQIYALKETGIIIVYAALSPEKIDEFFSKMKDVLSNESLFMKNFEYGKMRYLGKLDMVTDNPAGMMSFVIDDLSNDSLETIEERVERIKNVSKEDYRRAYERFIAGNWSVFGIGPESGKIIEKHEMIV", "soluble on expression in E. coli": "not soluble"}, {"sequence": "MGSDKIHHHHHHMERITILHTNDLHSHFENWPRIRRYLKTTRQQVMADGATVYTFDLGDHVDRVHPVSEATNGQQNIQLMNQIGYDGVTIGNNEGLGFVRAQLDHLYDHANFPVILGNLRIPDTHELPDWAIDHRLLTTAAGTRLLVLGLTAPYHLTYPLAGWQILDVQPTLAALLHRFAGQFDVCVLLSHLGLDVDRLLAKRFPQVTVIIGSHTHHLLPHGEHDHQSLLAAAGKFGRYIGKIELSITPDHQVKSAVASVTETATLPVADGDTAEITSLQDLGESILSEQRVANLPTAMEADPTGQPRLVREGLHAIAEYAGTQAAILNAGLFLQDLPSGVVNQNQLHQLLPHNMHVMTVTLSGYDLWRLVQEFELARLFLRRFPQKGMGFRGKIFGELNYLGLAYDAVTHQVTWRGEPLSPTRQYRIAMVDHYLFIPFFPTISIVGKNQILYDDLLREVFAQYLARHYPLT", "soluble on expression in E. coli": "not soluble"}]}]}
